Source: US20050113284A1, “Drug for regenerating tissue and vessel and method therefor” (priority 2001, published 2005)

Target: mouse HGF receptor c-Met (endogenous in mouse hepatocytes and liver) (mouse) (UniProt P16056)
Test: cell-based or functional assay

full-length mouse MERMUC overexpressed in MERMUC-Tg mice (from UniProt Q8BUE7 22-656)
ratio of liver weight to body weight after transient overexpression of human HGF: 1.2 times
